In paper PMC2891831, “Insight into the Mechanisms of Adenovirus Capsid Disassembly from Studies of Defensin Neutralization” (PLoS Pathogens, 2010):

System: Ad5.eGFP
Experiment: Ad5.eGFP infection, eGFP-positive cells by flow cytometry
Format: cell-based, human adenovirus
Conditions: 15 µM defensin, percent eGFP positive cells vs. no defensin, at least three independent experiments
Description: To gain further insight into the defensin-HAdV interaction, we assessed the requirement for two conserved structural elements on the anti-AdV activity of HD5. All defensins have three disulfide bonds (Figure 3A). […] The antibacterial properties of defensins, which are dependent upon protein-lipid interactions, are not uniformly conformation dependent [27]–[29]. […] In contrast, defensin-related chemokine activity, which relies on protein-protein interactions, is dependent on defensin conformation. We hypothesized that the defensin-capsid interaction for sensitive serotypes would likely be dependent upon defensin conformation, as this would be more typical for protein-protein interactions. […]
Figure 3 HD5 antiviral activity is structure dependent. […] C) Binding of Alexa Fluor 488-labeled HAdV-5 to cells was assessed after incubation with or without 20 µM HD5 or HD5-Abu and in competition with 100 nM 5FK or 16 FK. Data are the mean fold increase in geometric mean fluorescence compared to cells alone and are of at least 10,000 cells from each of three independent experiments ± SD.
To test the activity of HD5 derivates, Ad5.eGFP was incubated with 15 µM of HD5, HD5-Abu, or HD5-E14Q. Infectivity was assessed by enumerating eGFP-positive cells by flow cytometry as described.

B1: HD5-E14Q: HD5 containing a substitution of glutamine for glutamic acid 14, to disrupt the conserved salt bridge (peptide, UniProt Q01523 20-94, looked up, variant E14Q)
Defensin alpha 5: ESLQERADEATTQKQSGEDNQDLAISFAGNGLSALRTSGSQARATCYCRTGRCATRQSLSGVCEISGRLYRLCCR
modifications: Defensin-5
notes: HD5 containing a substitution of glutamine for glutamic acid 14, to disrupt the conserved salt bridge
antiviral activity against Ad5.eGFP: no effect on antiviral activity
